Results on 43 molecules are retold here after patent US20050163775A1, “Combination therapy for B cell disorders” (Genentech, Inc., priority 2003, published 2005).

The target in the test is T1, human BAFF (residues 82-285) (human, UniProt Q9Y275 82-285).
T1 construct: Coated on plates in the ELISAs; also used biotinylated or free in solution for phage sorting; also called BAFF82-285; BLyS82-285
Description: phage display selection on BAFF.

Bridges are numbered along the chain shown (N, C = ends). Where no end group is shown, it is not given here.

T1 sequence (Q9Y275 82-285): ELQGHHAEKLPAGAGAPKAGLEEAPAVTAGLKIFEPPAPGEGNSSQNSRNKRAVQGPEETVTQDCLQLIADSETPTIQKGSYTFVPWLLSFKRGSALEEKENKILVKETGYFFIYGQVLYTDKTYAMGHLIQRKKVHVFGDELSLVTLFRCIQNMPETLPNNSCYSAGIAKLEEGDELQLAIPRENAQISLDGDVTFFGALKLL

For ECFDVLVNAWVDCAVLR (disulfide 2-13 (inferred)) [SEQ ID NO 128], the binding result is on record as “binds”. For ECFDLLVRSWVPCSSLG [SEQ ID NO 77], the binding result is “binds”. Turning to ECFDLLVRVWVPCSRLY [SEQ ID NO 82], the binding result is recorded as “binds”. As to ECFDLLVRQWVPCGALG [SEQ ID NO 83], the binding result is recorded as “binds”. With ECFDLLVRSWVPCGTLM [SEQ ID NO 69], the binding result is given as “binds”. Next, ECFDLLVNSWVPCSVIA (disulfide 2-13 (inferred)) [SEQ ID NO 139]: “binds”; ECFDPLVNAWVPCAVLH (disulfide 2-13 (inferred)) [SEQ ID NO 135]: “binds”; ECFDLLVRGWVPCSVLQ [SEQ ID NO 93]: “binds”. ECFDLLVRQWVPCERIR [SEQ ID NO 65]: the binding result is “binds”. Consider ECFDDLVRNWVPCALLN [SEQ ID NO 134], for which the binding result is recorded as “binds”.

As for ECFDILVNRWVPCGALT (disulfide 2-13 (inferred)) [SEQ ID NO 133], the binding result is “binds”. Turning to ECFDVLVRAWVPCRALT (disulfide 2-13 (inferred)) [SEQ ID NO 132], the binding result is reported as “binds”. For ECFDDLVRHWVPCDLLT [SEQ ID NO 131], the binding result is reported as “binds”. On to ECFDSLVRIWVPCGLID [SEQ ID NO 141], for which the binding result is on record as “binds”. As to ECFDLLVREWVPCRILQ [SEQ ID NO 85], the binding result is recorded as “binds”. For ECFDPLVRHWVPCRALD [SEQ ID NO 130], the binding result is listed as “binds”. As for ECFDLLVRAWVPCSYLS [SEQ ID NO 89], the binding result was “binds”.

With ECFDSLVNAWVPCHVLT (disulfide 2-13 (inferred)) [SEQ ID NO 142], the binding result is listed as “binds”.

Turning to ECFDLLVRAWVPCWLRL [SEQ ID NO 74], the binding result was “binds”.

With ECFDLLVRKWVPCSTFH (disulfide 2-13 (inferred)) [SEQ ID NO 92], the binding result is reported as “binds”.

For the molecule ECFDLLVRGWVPCEKLM [SEQ ID NO 73], the binding result is “binds”.

For the molecule ECFDLLVRRWVPCSLVK [SEQ ID NO 87], the binding result is on record as “binds”. As to ECFDLLVRTWVECSLLN [SEQ ID NO 68], the binding result is listed as “binds”.

Turning to ECFDLLVRRWVPCGLLR [SEQ ID NO 75], the binding result is on record as “binds”. ECFDALVHRWVPCDLLR [SEQ ID NO 137]: the binding result is recorded as “binds”.

Take ECFDLLVRAWVPCNELR [SEQ ID NO 84]: the binding result is “binds”. In the case of ECFDPLVLRWVPCSALH (disulfide 2-13 (inferred)) [SEQ ID NO 136], the binding result is “binds”.

For the molecule ECFDLLVRQWVPCRALM [SEQ ID NO 88], the binding result was “binds”. Take ECFDLLVRRWVDCAFLH [SEQ ID NO 76]: the binding result is given as “binds”. As for ECFDLLVRSWVPCHMLR [SEQ ID NO 70], the binding result was “binds”. As to ECFDLLVRRWVPCELLV [SEQ ID NO 79], the binding result is listed as “binds”.

For ECFDLLVRAWVRCDMLL [SEQ ID NO 72], the binding result was “binds”. Next, ECFDLLVRSWVPCYSLK [SEQ ID NO 80]: “binds”; ECFDLLVRKWVPCQVLG [SEQ ID NO 67]: “binds”; ECFDLLVRRWVPCSWLL [SEQ ID NO 86]: “binds”. Consider ECFDPLVRDWVPCDLIH (disulfide 2-13 (inferred)) [SEQ ID NO 138], for which the binding result is “binds”. In the case of ECFDTLVRAWVPCSHLT (disulfide 2-13 (inferred)) [SEQ ID NO 140], the binding result is given as “binds”.

Take ECFDLLVRTWVPCQAIL (disulfide 2-13 (inferred)) [SEQ ID NO 71]: the binding result is on record as “binds”.

ECFDGLVNAWVDCGLLR [SEQ ID NO 129]: the binding result was “binds”. Turning to ECFDLLVRQWVSCQVFA (disulfide 2-13 (inferred)) [SEQ ID NO 81], the binding result is listed as “binds”.

On to ECFDLLVRRWVPCEMLG [SEQ ID NO 66], for which the binding result is “binds”. Take ECFDLLVRDWVPCSLLF [SEQ ID NO 90]: the binding result is recorded as “binds”.

Turning to ECFDLLVRSWVPCTLLS [SEQ ID NO 91], the binding result is “binds”.
